From PMC10641529, “Selective targeting and clustering of phosphatidylserine lipids by RSV M protein is critical for virus particle production” (The Journal of Biological Chemistry, 2023)

How the values were obtained:
[1] = target: His6-GCN4-FCT (Histidine tag and GCN4 leucine zipper domain fused to the cytoplasmic tail of the RSV fusion (F) glycoprotein) (not stated | human respiratory syncytial virus); experiment: SDS-PAGE with Western blotting; purified His-GCN4-FCT on SDS-PAGE, detected with an anti-His antibody
RSV M protein = target: T1, RSV M protein (Human respiratory syncytial virus A2, UniProt P0DOE7); experiment: LUV cosedimentation, SDS-PAGE densitometry; type: binding; conditions: PC:PS (70:30) LUVs; accessible PS 50 μM to 1.5 mM; 8 μM M; 150 mM NaCl, 10 mM Tris-HCl, pH 7.4, 25 °C; acyl chains of PS not told; read-out: Kd,app
T1 construct: full-length M, recombinant from E. coli Rosetta 2 (pCDF-M); His6 tag cut with 3C protease; dimer
T1 sequence (P0DOE7 whole entry): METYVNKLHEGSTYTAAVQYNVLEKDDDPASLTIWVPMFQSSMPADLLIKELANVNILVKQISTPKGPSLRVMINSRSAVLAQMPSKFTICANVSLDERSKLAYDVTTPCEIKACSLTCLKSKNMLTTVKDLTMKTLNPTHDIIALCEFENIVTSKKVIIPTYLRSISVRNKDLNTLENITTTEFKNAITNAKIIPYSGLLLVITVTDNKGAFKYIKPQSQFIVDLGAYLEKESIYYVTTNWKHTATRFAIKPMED

Substance | stoichiometry N [1] | Kd (RSV M protein)
His6-GCN4-FCT (Histidine tag and GCN4 leucine zipper domain fused to the cytoplasmic tail of the RSV fusion (F) glycoprotein) | 3 | 
phosphatidylserine [PS] |  | 15 to 57 µM
